Key:
PKR1-169 (tandem dsRBMs) = PKR1-169 (tandem dsRBMs) (human, UniProt P19525 1-169); assay: SEC co-elution, native PAGE; 5 mM Mg2+; 1.1-fold excess RNA; complex also studied by SAXS; […], room temperature 10 min, […]; SEC: 50 mM Tris pH 7.5, 100 mM NaCl, 5 mM MgCl2; details: protein: recombinant; three-way junction RNA, apical and central stem-loops
PKR (full length) = PKR (full length) (human, UniProt P19525 1-551); assay: EMSA; 5 mM Mg2+; Kd only in figure inset; […], room temperature 10 min, […]; SEC: 50 mM Tris pH 7.5, 100 mM NaCl, 5 mM MgCl2; details: protein: recombinant; three-way junction RNA, apical and central stem-loops
Chain of PKR (full length) (P19525 whole entry): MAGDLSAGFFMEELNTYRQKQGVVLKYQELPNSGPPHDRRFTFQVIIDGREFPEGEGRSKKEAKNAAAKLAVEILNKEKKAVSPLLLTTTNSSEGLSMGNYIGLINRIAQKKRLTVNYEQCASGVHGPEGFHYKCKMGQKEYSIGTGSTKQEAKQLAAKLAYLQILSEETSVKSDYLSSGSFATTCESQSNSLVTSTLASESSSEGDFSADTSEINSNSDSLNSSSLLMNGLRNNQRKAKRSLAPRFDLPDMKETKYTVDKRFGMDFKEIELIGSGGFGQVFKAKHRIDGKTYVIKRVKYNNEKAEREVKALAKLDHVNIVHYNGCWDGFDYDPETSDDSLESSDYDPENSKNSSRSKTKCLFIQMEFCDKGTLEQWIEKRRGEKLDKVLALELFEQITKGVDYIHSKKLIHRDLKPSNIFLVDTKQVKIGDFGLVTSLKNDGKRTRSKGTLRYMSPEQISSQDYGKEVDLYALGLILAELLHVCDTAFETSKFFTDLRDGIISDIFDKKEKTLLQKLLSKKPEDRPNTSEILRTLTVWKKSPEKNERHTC

Chain of PKR1-169 (tandem dsRBMs) (P19525 1-169): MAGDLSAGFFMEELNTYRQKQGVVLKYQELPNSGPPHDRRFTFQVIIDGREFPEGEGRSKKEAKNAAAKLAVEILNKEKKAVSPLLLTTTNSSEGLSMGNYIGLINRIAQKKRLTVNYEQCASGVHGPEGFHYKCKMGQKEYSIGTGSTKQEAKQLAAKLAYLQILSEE

B1: VAI dTS (wt RNA) (structured_RNA)
RNA: GGCAAGGGUAUCAUGGCGGACGACCGGGGUUCGAACCCCGGAUCCGGCCGUCCGCCGUGAUCCAUGCGGUUACCGCCCGCGUGUCGAACCCAGGUGUGCC
B1: binds (PKR1-169 (tandem dsRBMs)); binds (PKR (full length)).
